Columns and labels:
Assay in all cases: SPR Biacore T200, biotinylated TnC on SA chip, Fab as analyte, 1:1 fit
[1] = target: T1, cynoTNC (recombinant cynomolgus TnC antigen) (cynomolgus, biotin on the C-terminal avi-tag where used biotinylated (Example 5))
T1 construct: GST may have been cleaved off by thrombin; The text says this construct lacks the C domain
T1 chain: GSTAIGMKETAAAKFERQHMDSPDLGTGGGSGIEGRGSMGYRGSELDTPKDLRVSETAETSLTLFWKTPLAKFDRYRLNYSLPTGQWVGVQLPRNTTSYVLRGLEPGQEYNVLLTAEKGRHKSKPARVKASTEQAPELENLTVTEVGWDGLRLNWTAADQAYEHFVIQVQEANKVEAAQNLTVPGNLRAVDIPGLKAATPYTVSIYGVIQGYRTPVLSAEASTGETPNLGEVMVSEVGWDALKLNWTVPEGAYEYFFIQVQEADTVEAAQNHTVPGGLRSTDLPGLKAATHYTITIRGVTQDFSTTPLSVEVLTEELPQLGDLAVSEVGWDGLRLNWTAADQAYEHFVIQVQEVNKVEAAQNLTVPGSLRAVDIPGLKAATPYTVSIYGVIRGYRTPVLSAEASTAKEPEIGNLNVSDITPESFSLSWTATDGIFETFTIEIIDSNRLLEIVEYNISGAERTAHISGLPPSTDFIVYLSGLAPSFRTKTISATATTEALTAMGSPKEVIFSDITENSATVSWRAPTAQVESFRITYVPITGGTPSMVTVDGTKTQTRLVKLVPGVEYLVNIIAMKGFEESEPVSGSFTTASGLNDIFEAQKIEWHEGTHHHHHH
Method: (§1) Binding of the anti-TnC IgGs 18D4, 11C7 and the Fab fragment of anti-TnC 18D4 to human, murine and cynomolgus TnC (antigens according to Table 4) was assessed by surface plasmon resonance (SPR). All SPR experiments were performed on a Biacore T200 at 25° C. with HBS-EP as running buffer (0.01 M HEPES pH 7.4, 0.15 M NaCl, 3 mM EDTA, 0.005% Surfactant P20, Biacore, Freiburg/Germany).
(§2) A 20 μg/ml stock solution of biotinylated human, murine or cynomolgus TnC was injected on a SA chip, with the aim to immobilize up to 100 RU using the immobilization wizard function.
(§3) An additional dissociation step of 1800s was performed for the highest concentration of IgG. After each step the surface was regenerated following two sequential injections of 10 mM glycine pH2.1 for 60 s. Bulk refractive index differences were corrected for by subtracting the response obtained in a reference flow cell without TNC. Affinity and avidity were calculated using the Langmuir 1:1 kinetic model. However, as the KD for the 1:1 fitting of bivalent interactions is an apparent value only, it should only be used for comparisons.

[2] = target: T2, muTNC (recombinant murine TnC antigen) (mouse, biotin on the C-terminal avi-tag where used biotinylated (Example 5))
T2 construct: GST may have been cleaved off by thrombin; The text says this construct lacks the C domain; also called mouse TnC
T2 chain: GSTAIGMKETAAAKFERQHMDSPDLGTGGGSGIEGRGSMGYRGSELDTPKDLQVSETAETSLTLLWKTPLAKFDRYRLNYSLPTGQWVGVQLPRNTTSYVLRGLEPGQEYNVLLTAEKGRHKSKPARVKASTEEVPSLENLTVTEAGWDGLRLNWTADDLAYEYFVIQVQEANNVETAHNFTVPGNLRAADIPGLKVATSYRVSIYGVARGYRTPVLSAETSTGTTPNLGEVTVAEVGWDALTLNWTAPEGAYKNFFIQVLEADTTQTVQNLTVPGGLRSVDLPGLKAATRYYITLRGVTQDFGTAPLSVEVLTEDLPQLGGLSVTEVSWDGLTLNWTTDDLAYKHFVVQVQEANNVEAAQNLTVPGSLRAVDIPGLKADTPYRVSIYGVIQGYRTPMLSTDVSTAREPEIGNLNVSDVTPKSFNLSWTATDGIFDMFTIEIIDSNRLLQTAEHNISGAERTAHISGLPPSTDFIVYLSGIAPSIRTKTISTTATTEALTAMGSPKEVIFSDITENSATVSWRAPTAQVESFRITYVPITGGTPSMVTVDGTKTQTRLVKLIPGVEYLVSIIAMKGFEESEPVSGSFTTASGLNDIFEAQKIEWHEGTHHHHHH
Method: as §1, §2, §3

[3] = target: T3, huTNC (recombinant human TnC antigen) (human, UniProt P24821 984-1798, biotin on the C-terminal avi-tag where used biotinylated (Examples 5 and 10))
T3 sequence: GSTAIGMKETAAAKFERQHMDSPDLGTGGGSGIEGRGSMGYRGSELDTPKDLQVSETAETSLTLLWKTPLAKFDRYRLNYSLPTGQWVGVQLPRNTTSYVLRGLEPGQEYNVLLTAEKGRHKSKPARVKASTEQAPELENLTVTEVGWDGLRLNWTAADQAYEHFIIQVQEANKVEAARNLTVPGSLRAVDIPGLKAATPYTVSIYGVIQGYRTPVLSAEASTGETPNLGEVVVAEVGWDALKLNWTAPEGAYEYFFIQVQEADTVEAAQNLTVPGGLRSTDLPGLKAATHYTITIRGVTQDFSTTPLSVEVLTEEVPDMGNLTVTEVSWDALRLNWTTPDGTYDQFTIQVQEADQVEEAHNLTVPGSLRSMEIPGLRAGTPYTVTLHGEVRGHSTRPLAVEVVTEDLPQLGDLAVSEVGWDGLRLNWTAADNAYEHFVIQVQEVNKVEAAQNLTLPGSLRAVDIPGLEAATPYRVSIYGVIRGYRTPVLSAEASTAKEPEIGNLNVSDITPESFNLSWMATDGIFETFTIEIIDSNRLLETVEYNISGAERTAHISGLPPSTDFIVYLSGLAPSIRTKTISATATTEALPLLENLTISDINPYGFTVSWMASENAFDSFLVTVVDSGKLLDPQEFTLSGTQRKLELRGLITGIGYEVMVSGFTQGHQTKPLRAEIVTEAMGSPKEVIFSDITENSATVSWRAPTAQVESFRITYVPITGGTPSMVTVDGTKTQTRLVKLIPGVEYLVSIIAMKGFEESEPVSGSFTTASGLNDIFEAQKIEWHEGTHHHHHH
Method: as §1, §2, §3

B1: anti-TnC clone 18D4 Fab fragment (Fab, V domains shown)
VH: QVQLVQSGAEVKKPGSSVKVSCKASGGTFSSYAISWVRQAPGQGLEWMGGIIPIFGTANYAQKFQGRVTITADKSTSTAYMELSSLRSEDTAVYYCAKGNFYGGLDYWGQGTTVTVSS
VL: DIQMTQSPSTLSASVGDRVTITCRASQSISSWLAWYQQKPGKAPKLLIYDASSLESGVPSRFSGSGSGTEFTLTISSLQPDDFATYYCQQNKKFPSGTFGQGTKVEIK
[1]
  Kd: 6.69 nM
[2]
  Kd: 6.5 nM
[3]
  Kd: 1.44 nM

Reference: US20190248877A1 (Hoffmann-La Roche, published 2019)
